# No end group written: not given here. me3 = trimethyl on lysine side chain
# T1: BAH domain of human BAHD1 (BAH589-780), wild type (Homo sapiens, UniProt Q8TBE0)
# T1 construct: The BAH domain encompassing residues 589-780 of human BAHD1 was cloned in to a; 10xHis-SUMO (N, cleaved yes); made in house; host or cells: E. coli BL21 (DE3)
# T1 sequence (Q8TBE0 589-780): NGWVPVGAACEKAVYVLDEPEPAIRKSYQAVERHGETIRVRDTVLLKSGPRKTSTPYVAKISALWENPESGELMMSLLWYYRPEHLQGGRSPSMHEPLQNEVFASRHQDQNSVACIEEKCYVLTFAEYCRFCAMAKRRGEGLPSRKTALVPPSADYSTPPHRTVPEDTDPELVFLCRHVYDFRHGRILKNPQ
# T2: BAH domain of human BAHD1 (residues 589-780), wild type (human, UniProt Q8TBE0 589-780)
# T2 construct: BAHD1 (bromo adjacent homology domain containing protein 1), human, BAH domain, residues 589-780 of the full-length protein (1-780); also called BAH589-780; BAH_(BAHD1); source: E. coli BL21 (DE3), purified (HisTrap, tag cleaved by ULP1, Superdex G75); not shown: 10xHis-SUMO, N-terminal, cleaved
# T2 sequence (looked up): T1 sequence (Q8TBE0 589-780)
# B1: histone H3 (19-34) K27me3 peptide (peptide)
# peptide: QLATKAARKSAPATGG
# modifications: trimethyl-lysine at K27 (K(me3))
# notes: histone H3, residues 19-34 (A31: as in H3.1/H3.2); source: synthetic peptide (SciLight Biotechnology)
# B2: histone H3 (21-32) K27me3 peptide (peptide)
# peptide: ATKAARK(me3)SAPAT
# notes: histone H3, residues 21-32 (A31: as in H3.1/H3.2); source: synthetic peptide (SciLight Biotechnology)
# Tests used:
# [1] = biological target: T1, BAH domain of human BAHD1 (BAH589-780), wild type; assay: Isothermal titration calorimetry (ITC), wild type BAH domain; type: binding; settings: wild type BAHBAHD1
# [2] = biological target: BAH_(BAHD1) domain (aa 589–780), as used in ITC and HXMS (human) (UniProt Q8TBE0); assay: ITC; BAH_(BAHD1) domain titrated with histone peptides; optimized buffer condition (Tm 39°C in thermal shift assays)
# [3] = biological target: BAHD1 BAH domain, 589-780 (UniProt Q8TBE0); assay: isothermal titration calorimetry; settings: reference: H3K27me3 peptide; sites S28
# [4] = biological target: BAH domain of human BAHD1 (residues 589-780), wild type (human) (UniProt Q8TBE0); assay: ITC; BAH domain (wild type or mutant) titrated with histone peptide; 15 °C, MicroCal iTC200; 20 mM Tris pH 8.5, 500 mM (NH)2SO4, 5% glycerol; "One Set of Binding Sites" fitting model
# [5] = biological target: T2, BAH domain of human BAHD1 (residues …); assay: as above; settings: both partners purified
molecule,measurement,setting,value
"ARTKQTARKSTGGK(ac)A-NH2 [H31-15K14ac, histone H3 peptide residues 1-15 with acetylated K14]",binding observed by ITC (in words),[1],no bindings were observed
H3K27me1 peptide,Kd,[2],2000 µM
"H3K27me3 peptide, H3 frame 19–34 (from UniProt P68431 20-35)",fold reduction of binding against H3 (15-42)K27me3,[2],3.9 fold
"H3K27me3 peptide, H3 frame 21–32 (from UniProt P68431 22-33)",fold reduction of binding against H3 (15-42)K27me3,[2],7.8 fold
H3_(1-15)K9me3 peptide (from UniProt P68431 2-16),Kd,[2],2600 µM
"NH2-ARTKQTAR(me2s)KS-COOH [H31-10R8me2s, histone H3 peptide residues 1-10 with R8me2s]",binding observed by ITC (in words),[1],no bindings were observed
histone H3 15-42 H3K27me3S28ph peptide,KD,[3],weaker; reference 15.9
histone H3 (15-42) K27me1 peptide,stoichiometry N,[4],1
histone H3 (15-42) K27me2 peptide,stoichiometry N,[4],1.1
histone H3 (15-42) K27me3 S28ph peptide,stoichiometry N,[4],1
histone H3 (15-42) K27me3 peptide,stoichiometry N,[4],1
B1,Kd,[5],61.3 µM
B2,Kd,[5],124 µM
same,stoichiometry N,[5],1.1

# Reference: PMC4791424, “The BAH domain of BAHD1 is a histone H3K27me3 reader” (Protein & Cell, 2016)
